Test results from PMC7934869 (2021).

Experiments:
[1] = molecular target: T1, recombinant Plasmodium falciparum circumsporozoite protein (rPfCSP) (Plasmodium falciparum 3D7, UniProt Q7K740 19-374); experiment: ITC; first site (KD1)
[2] = molecular target: T1, recombinant Plasmodium falciparum …; experiment: ITC; second site (KD2)

T1 sequence (Q7K740 19-374): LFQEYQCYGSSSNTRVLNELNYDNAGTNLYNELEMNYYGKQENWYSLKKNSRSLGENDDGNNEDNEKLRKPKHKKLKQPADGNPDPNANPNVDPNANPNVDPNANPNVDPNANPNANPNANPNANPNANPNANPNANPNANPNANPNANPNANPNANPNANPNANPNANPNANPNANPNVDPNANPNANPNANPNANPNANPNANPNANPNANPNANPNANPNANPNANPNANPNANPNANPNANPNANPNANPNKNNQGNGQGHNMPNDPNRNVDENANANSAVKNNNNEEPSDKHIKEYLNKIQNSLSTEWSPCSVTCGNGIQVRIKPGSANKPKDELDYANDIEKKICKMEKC

B1: CIS43 human monoclonal antibody (antibody, V domains shown)
VH: QVQLVQSGAEVKKPGASVKVSCKASGYTFTSYAIHWVRQAPGQRLEWMGWIKAGNGNTRYSQKFQDRVTITRDTSTTTAYMELSSLRSEDTAVYYCALLTVLTPDDAFDIWGQGTMVTVSS
VL: not shown
Q: What does the source list for B1?
A: Kd [1]: 7.9 nM; Kd [2]: 42 nM
